The record followed here is paper PMC5394233, “Structural and functional analysis of the human POT1-TPP1 telomeric complex” (Nature Communications, 2017).

Holding throughout (assay): fluorescence polarization; FP: 20 mM Hepes pH 7.5, 100 mM KCl, 2 mM MgCl2, 1 mM EDTA, 2 mM DTT, 1 mg/ml BSA, 5% glycerol, 75 nM polyT50 competitor, 2.5 nM probe, room temperature 30 min
(In general: Polarisation of emitted light reports the rotation of a fluorescent probe.)

One data set deals with T1, POT1C (Homo sapiens, UniProt Q9NUX5 330-634).
T1 sequence: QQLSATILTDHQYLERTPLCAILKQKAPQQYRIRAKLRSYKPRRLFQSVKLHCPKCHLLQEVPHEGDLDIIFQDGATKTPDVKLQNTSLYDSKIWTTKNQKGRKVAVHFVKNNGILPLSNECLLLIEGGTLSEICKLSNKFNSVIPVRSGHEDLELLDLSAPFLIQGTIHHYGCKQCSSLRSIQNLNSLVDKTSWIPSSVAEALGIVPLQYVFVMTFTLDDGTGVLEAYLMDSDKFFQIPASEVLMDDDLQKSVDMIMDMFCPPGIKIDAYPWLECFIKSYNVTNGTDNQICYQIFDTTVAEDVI
To be noted: protein: recombinant; tags: N-terminal His6-pMocr, TEV-cleaved; label: 5' 6-FAM; single strand.

Another data set addresses T2, flPOT1 C591W (Homo sapiens, UniProt Q9NUX5 1-634, C591W).
T2 sequence: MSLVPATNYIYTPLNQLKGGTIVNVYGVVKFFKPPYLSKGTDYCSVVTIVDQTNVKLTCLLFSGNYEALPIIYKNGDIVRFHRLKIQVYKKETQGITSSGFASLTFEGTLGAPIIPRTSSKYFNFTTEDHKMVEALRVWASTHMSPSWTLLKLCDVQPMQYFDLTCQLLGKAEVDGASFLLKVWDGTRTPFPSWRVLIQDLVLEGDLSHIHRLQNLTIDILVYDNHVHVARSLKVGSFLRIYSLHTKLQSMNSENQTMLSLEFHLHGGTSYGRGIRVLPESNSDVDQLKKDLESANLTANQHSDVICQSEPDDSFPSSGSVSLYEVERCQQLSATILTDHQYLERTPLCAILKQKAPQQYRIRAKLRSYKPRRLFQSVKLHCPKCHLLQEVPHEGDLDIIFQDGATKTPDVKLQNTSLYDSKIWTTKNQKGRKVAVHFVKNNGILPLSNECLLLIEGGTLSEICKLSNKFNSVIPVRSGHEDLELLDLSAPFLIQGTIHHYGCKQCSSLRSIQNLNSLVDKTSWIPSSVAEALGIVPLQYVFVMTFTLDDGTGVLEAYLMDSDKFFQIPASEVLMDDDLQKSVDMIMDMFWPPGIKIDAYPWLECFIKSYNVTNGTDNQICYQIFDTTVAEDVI
The following applies: protein: recombinant; tags: N-terminal His6-pMocr, TEV-cleaved; label: 5' 6-FAM; single strand.

In a further data set the target is flPOT1 Q623H;TPP1(87) (Homo sapiens;Homo sapiens, UniProt Q9NUX5;Q96AP0 1-634;1-458, Q623H|). To be noted: protein: recombinant;recombinant, tags: N-terminal His6-pMocr, TEV-cleaved;N-terminal His6-MBP, copies: 1;1, label: 5' 6-FAM, single strand.
Chain of flPOT1 Q623H;TPP1(87) (Q9NUX5 whole entry Q623H, chain 1 of 2): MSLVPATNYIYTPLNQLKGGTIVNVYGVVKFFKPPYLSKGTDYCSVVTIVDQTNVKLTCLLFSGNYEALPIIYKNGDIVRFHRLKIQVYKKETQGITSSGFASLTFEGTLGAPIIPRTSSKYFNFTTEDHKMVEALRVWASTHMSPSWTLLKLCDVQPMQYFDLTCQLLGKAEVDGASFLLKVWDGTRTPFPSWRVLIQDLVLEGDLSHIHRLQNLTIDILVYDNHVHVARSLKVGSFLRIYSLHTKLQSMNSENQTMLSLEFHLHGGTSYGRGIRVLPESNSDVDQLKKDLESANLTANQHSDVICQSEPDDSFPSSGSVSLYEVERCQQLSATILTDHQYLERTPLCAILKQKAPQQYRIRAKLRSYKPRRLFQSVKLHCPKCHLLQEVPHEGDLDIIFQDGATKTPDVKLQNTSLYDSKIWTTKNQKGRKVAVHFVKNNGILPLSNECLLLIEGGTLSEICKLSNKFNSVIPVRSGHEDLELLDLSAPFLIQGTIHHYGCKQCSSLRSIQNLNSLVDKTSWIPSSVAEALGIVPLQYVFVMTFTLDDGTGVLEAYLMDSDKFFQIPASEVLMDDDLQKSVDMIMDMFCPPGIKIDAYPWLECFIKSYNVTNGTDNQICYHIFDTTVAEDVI
Chain of flPOT1 Q623H;TPP1(87) (Q96AP0 whole entry, chain 2 of 2): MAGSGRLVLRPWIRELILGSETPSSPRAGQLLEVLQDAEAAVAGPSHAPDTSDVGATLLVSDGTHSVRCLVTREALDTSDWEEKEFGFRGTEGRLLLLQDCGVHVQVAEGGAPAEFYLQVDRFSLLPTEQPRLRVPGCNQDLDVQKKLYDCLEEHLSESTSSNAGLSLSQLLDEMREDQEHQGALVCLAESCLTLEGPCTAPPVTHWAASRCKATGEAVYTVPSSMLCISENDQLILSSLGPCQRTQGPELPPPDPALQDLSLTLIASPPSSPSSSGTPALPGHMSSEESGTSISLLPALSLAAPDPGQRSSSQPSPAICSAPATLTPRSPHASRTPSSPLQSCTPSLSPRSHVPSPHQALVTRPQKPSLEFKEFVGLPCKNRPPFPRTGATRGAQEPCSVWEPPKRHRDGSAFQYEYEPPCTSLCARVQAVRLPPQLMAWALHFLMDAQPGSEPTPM
The target of a further data set is T3, flPOT1 P446Q (Homo sapiens, UniProt Q9NUX5 1-634, P446Q).
T3 sequence: T2 sequence with P446Q, W591C
To be noted: protein: recombinant; tags: N-terminal His6-pMocr, TEV-cleaved; label: 5' 6-FAM; single strand.

The target of a further data set is T4, flPOT1 WT (Homo sapiens, UniProt Q9NUX5 1-634).
T4 sequence: T2 sequence with W591C
The following applies: protein: recombinant; tags: N-terminal His6-pMocr, TEV-cleaved; label: 5' 6-FAM; single strand.

Where a chain is given by its changes, count along the chain named.

In the case of TTAGGGTTAGGGTTAGGG (ssDNA) [telomeric 18mer (TTAGGG)3], the binding result in the data set with POT1C is recorded as “no binding”. Besides, the Kd (in general, the concentration at which binding is half-saturated) was around 20 nM with flPOT1 C591W, 8.9 ± 1 nM in the data set with flPOT1 Q623H;TPP1(87), around 20 nM with flPOT1 P446Q and around 20 nM with flPOT1 WT.
